Source: patent US20100158922A1

Molecular target: recombinant human IFNγ (human) (UniProt P01579)
Experiment: cell-based or functional assay

recombinant human IFNγ (human), sequence (P01579 24-166 limits assumed): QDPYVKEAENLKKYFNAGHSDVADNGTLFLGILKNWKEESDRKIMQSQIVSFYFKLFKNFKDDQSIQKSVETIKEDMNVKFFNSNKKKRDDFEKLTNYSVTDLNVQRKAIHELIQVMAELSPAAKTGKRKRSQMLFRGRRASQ

R&D Systems mouse anti-human IFNγ antibody MAB285
MHC II Inhibition Cell-Based Assay IC50: 0.4 nM
